Test results as given in patent US20250326817A1 (LA JOLLA INSTITUTE FOR IMMUNOLOGY, published 2025).

Tests used:
[1] = target: T1, single chain homotrimeric mouse LIGHT extracellular domain (G73-V239), N-terminal HHHHHHGG, joined by two … (mouse, UniProt Q9QYH9 73-239); experiment: Octet bio-layer interferometry, mHVEM-hIgG1 on the sensor, LIGHT in solution
T1 construct: Soluble analyte of the Octet assay; from Expi293 cells; also called mLIGHT
T1 sequence: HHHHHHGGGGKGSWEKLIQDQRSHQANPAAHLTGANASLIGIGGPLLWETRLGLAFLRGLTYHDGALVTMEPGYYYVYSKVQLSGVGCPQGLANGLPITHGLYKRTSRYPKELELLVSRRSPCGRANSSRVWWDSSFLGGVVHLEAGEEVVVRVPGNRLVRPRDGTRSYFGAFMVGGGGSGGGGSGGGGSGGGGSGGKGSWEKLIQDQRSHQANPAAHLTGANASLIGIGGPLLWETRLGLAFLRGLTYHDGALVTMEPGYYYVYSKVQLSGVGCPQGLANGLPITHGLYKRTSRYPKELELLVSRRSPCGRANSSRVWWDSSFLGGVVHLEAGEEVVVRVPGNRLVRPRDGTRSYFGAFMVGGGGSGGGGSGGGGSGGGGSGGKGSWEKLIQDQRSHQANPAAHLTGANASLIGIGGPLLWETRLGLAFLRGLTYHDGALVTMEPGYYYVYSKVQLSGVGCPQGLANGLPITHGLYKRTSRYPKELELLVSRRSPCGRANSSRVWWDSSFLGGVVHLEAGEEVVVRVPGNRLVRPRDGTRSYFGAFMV
Text: (§1) The results were exported and then analyzed using Prism 5 (GraphPad Software). Final response curves were generated after subtracting the responses of the control groups.

[2] = target: T2, mouse BTLA, soluble protein (analyte of the Octet assay) (mouse, UniProt Q7TSA3 30-183, limits assumed); experiment: Octet bio-layer interferometry, mHVEM-hIgG1 on the sensor, mBTLA in solution
T2 construct: The construct is not described; also called mBTLA; mBTLA-penta-His-tag
T2 sequence (looked up): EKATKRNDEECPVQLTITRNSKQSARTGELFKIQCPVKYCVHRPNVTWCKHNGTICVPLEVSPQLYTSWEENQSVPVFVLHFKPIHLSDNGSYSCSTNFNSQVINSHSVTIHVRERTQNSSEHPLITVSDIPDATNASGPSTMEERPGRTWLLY
Text: (§2) Error bars represent results from at least triplicates. […] Ligands BTLA, CD160 and LIGHT are modeled based on the HVEM structures and are shown as labeled surfaces.
as §1

[3] = target: T2, mouse BTLA, soluble protein (analyte of …); experiment: Octet BLI, mHVEM-hIgG1 immobilised (text says surface plasmon resonance)
Text: as §1

[4] = target: T3, mouse CD160 residues I30-H154 with C-terminal …, refolded from E. coli inclusion bodies (mouse, UniProt O88875 30-154, biotin (mCD160-biotin in the cell staining assay; site not stated)); experiment: as above
T3 construct: range 30-154; also called mCD160; mCD160-biotin
T3 sequence: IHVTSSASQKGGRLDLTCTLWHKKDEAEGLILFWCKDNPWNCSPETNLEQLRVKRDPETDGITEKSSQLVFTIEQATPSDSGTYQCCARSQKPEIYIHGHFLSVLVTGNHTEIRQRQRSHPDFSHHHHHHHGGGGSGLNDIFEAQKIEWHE
Text: as §1

[5] = target: T1, single chain homotrimeric mouse LIGHT …; experiment: as above
Text: as §1

[6] = target: T3, mouse CD160 residues I30-H154 with …; experiment: Octet bio-layer interferometry, mHVEM-hIgG1 on the sensor, CD160 in solution
Text: as §1

[7] = target: T2, mouse BTLA, soluble protein (analyte of …); experiment: Octet bio-layer interferometry, mHVEM-hIgG1 on the sensor, BTLA in solution
Text: as §1

[8] = target: T1, single chain homotrimeric mouse LIGHT …; experiment: Octet bio-layer interferometry, mHVEM-hIgG1 on the sensor, mLIGHT in solution
Text: as §2, §1

[9] = target: T3, mouse CD160 residues I30-H154 with …; experiment: Octet bio-layer interferometry, mHVEM-hIgG1 on the sensor, mCD160 in solution
Text: as §2, §1

B1: mouse HVEM (Q39-Q206) H86D-L90A fused to human IgG1 and a hexa-His tag, soluble form (Fc fusion)
chain (part 1 of 2): QPSCRQEEFLVGDECCPMCNPGYHVKQVCSEHTGTVCAPCPPQTYTADANGASKCLPCGVCDPDMGLLTWQECSSWKDTVCRCIPGYFCENQDGSHCSTCLQHTTCPPGQRVEKRGTHDQDTVCADCLTGTFSLGGTQEECLPWTNCSAFQQEVRRGTNSTDTTCSSQ
chain (part 2 of 2): HHHHHH
notes: also called mHVEM^-LIGHT; mHVEM-LIGHT; not shown: human IgG1
Question: How did the Kd [1] turn out when B1 was run?
Answer: 31.7 µM

Question: What about the Kd [2] of the same binder?
Answer: 5.3 µM

Question: And the “fold reduction of binding against wild-type mHVEM” value [3]?
Answer: ~5 fold

Question: And the “fold reduction of binding against wild-type mHVEM” value [4]?
Answer: ~3 fold

Question: And the “log-fold decrease in binding against wild-type mHVEM” value [5]?
Answer: > 3 log-fold

Question: And the Kd [6]?
Answer: 33.5 µM

Question: What about the Kd [7] of the same binder?
Answer: 5.3 µM

Question: What about the Kd [8] of the same binder?
Answer: 31.7 µM

Question: And the Kd [9]?
Answer: 33.5 µM
